These results are taken from the supplement of paper PMC9170038.

Series [1] has as its system MS2 coat protein. Briefly: apparent KD of MS2 coat protein, switch OFF state (with FMN for OFF switches, without FMN for ON switches); designed switch direction (-1 OFF switch, 1 ON switch): -1; higher = weaker reporter binding. As to conditions: FMN input: 0 or 200 uM; Eterna round: R93 (includes R88 designs). The method in brief:
(§1)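 The designed RNA switches were transcribed on-chip from Illumina sequencing clusters. In 100 mM Tris-HCl pH 7.5, 80 mM KCl and 4 mM MgCl2, without or with constant ligand, they were titrated with SNAP-549-labelled MS2 coat protein from 0.7 or 1.5 nM to 3 µM in twofold steps. Apparent KD is the per-design median of normalised cluster binding-curve fits.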

Series [2] concerns MS2 coat protein. Briefly: apparent KD of MS2 coat protein, switch ON state; designed switch direction (-1 OFF switch, 1 ON switch): -1; higher = weaker reporter binding. As to conditions: FMN input: 0 or 200 uM; Eterna round: R93 (includes R88 designs). The method, boiled down:
as §1

Take “AAGAACCGAGGAUAUACAUGAGGAUCACCCAUGUAAAAGAAAGAAAAGGGAAAGAAAAGUAGAAGGCGGAAGAA [Aakheperenre Thutmose II]”: the entries for the “apparent KD of MS2 coat protein” value in the series on MS2 coat protein [1] and in the series with MS2 coat protein [2] were 55.5 nM and 42.8 nM, respectively.

Turning to “ACUAAACGAGGAUAUACUAACGAACCUCAAACAUAGAUAAGACAUGAGGAUCACCCAUGUAGAAGGCGUAGACU [JR_Exc002_Sub008]”, the “apparent KD of MS2 coat protein” value in the series with MS2 coat protein [1] was 59.7 nM; in the series with MS2 coat protein [2], 74.6 nM.

Regarding “AAAUGCUGAGGAUAUACAUGAGGAUCACCCAUGUAAAAUAAAUAAUGAGUGUAAACGUGUAGAAGGCAGCAUAA [Exclusion 3.14c (FMN+ favored )]”, the figures for the “apparent KD of MS2 coat protein” value in the series on MS2 coat protein [1] and in the series on MS2 coat protein [2] were 19.5 nM and 41.1 nM, respectively.

As for “AGUUGGCGAGGAUAUACAUGAGGAUCACCCAUGUAAGAGAAAAAAAGGAGAAAAAAAAGUAGAAGGCGCUGACA [Mat - Exclusion 3 - Lego mod - D45]”, the entries for the “apparent KD of MS2 coat protein” value with MS2 coat protein [1] and with MS2 coat protein [2] were 41.9 nM and 35.4 nM, respectively.

Turning to “AAAUAGCAAGGAUAUACAUGAGGAUCACCCAUGUGAAAAAGAUAUGGAAUAGAAUAGAGUAGAAGGUGCAAAUA [Ex 3 Tesla 8]”, the “apparent KD of MS2 coat protein” value is 54.1 nM with MS2 coat protein [1] and 40.4 nM in the series with MS2 coat protein [2].

As for “AUAAAACAUGAGGAUCACCCAUGUGAGGAUAUGCGAAAAUAAAUAAAAUAAAAUAAAAGCAGAAGGUACAAAUA [LROPPY Exclusion 1 - v04_deltaG=2.5 breakup some As]”, the entries for the “apparent KD of MS2 coat protein” value in the series with MS2 coat protein [1] and in the series with MS2 coat protein [2] were 40.2 nM and 29.3 nM, respectively.

On to “AACUGACAUGAGGAUCACCCAUGUCAGGAUAUGCUUCAUAAAAAGAAAUAAAAAUGAUGCAGAAGGGAUAUGGG [Design 34 :P Sub-opt 10]”, for which the “apparent KD of MS2 coat protein” value turned out to be 37.1 nM with MS2 coat protein [1] and 24.6 nM in the series on MS2 coat protein [2].

“CGUUGGCGAGGAUAUACAUGAGGAUCACCCAUGUGAGAGAAAAAAGUGAGAAAGAAAAGUAGAAGGCGCUGACC [salish99-ex3-13]”: the “apparent KD of MS2 coat protein” value in the series on MS2 coat protein [1] was found to be 162 nM; in the series on MS2 coat protein [2] it was 45.1 nM.

For “AAAGGUGCAGGAUAUGCGUGGAAAAAGUGUAUUCAAAAAAAACAUGAGGAUCACCCAUGUAGAAGGGUACCAAA [MS2 Riboswitches On Chip Exclusion 2 wbt2]”, the “apparent KD of MS2 coat protein” value amounted to 165 nM in the series on MS2 coat protein [1] and 55.7 nM with MS2 coat protein [2].

Regarding “AACAAGACAGGAUAUACAUGAGGAUCACCCAUGUGAGAAUUAAGUGGCGUACCACAAGGUAGAAGGGUCAUGGA [Ruby 3]”, the figures for the “apparent KD of MS2 coat protein” value in the series on MS2 coat protein [1] and in the series with MS2 coat protein [2] were 57.6 nM and 34.2 nM, respectively.

In the case of “UAUACGUGAGGAUAUGCGAAUACCACGUUAGACAUAUAGACGCAGAAGGCACAUGAGGAUCACCCAUGUGAACC [JR_Exc004_Sub315]”, the “apparent KD of MS2 coat protein” value in the series with MS2 coat protein [1] stood at 16.4 nM; in the series on MS2 coat protein [2], 21.4 nM.

In the case of “AAGAUGUGAGGAUAUGCUGCUCGUCACAAAAGUGAUGAGUAGCAGAAGGUACAUGAGGAUCACCCAUGUAAAGA [JL eternac mod 7]”, the “apparent KD of MS2 coat protein” value with MS2 coat protein [1] turned out to be 20.9 nM; in the series with MS2 coat protein [2], 32.4 nM.

For the sequence “AACAGGUGAGGAUAUCGAACAACAACAACAACAACAACAAACGAGAAGGCACAUGAGGAUCACCCAUGUAAGAA [Exclusion 4C]”, the “apparent KD of MS2 coat protein” value worked out at 16.6 nM in the series on MS2 coat protein [1] and 19.6 nM with MS2 coat protein [2].

With “AACUGACAUGAGGAUCACCCAUGUCAGGAUAUGAUUUGACGAAAAAAAAAAAGUCAUAUCAGAAGGGACAUGGA [Design 81: Sub-opt UB]”, the entries for the “apparent KD of MS2 coat protein” value with MS2 coat protein [1] and in the series on MS2 coat protein [2] were 41.5 nM and 24.7 nM, respectively.

Take “AAGAAACAUGAGGAUCACCCAUGUGAGGAUAUGCAAGAAAGAAAGAAAGAAAGAAGAAGCAGAAGGCACAAAGG [Gaius Turranius]”: the “apparent KD of MS2 coat protein” value with MS2 coat protein [1] was found to be 65.9 nM; in the series with MS2 coat protein [2] it was 42.4 nM.

As to “AGCUAGUCAGGAUAUACGAACAUGUCAAAAGACGUGAACGGACAUGAGGAUCACCCAUGUAGAAGGGACUAGCA [Diamond 5]”, the “apparent KD of MS2 coat protein” value came to 17.5 nM with MS2 coat protein [1] and 16.2 nM with MS2 coat protein [2].

In the case of “CUCAAGUCAGGAUAUAUAAGAAAAGAAGAGAAAGAAAAGAAAUAGAAGGGACAUGAGGAUCACCCAUGUAAGAA [EteRNA is fun!]”, the “apparent KD of MS2 coat protein” value in the series on MS2 coat protein [1] was 36.9 nM; with MS2 coat protein [2], 34.5 nM.

Take “AGUUGGCGAGGAUAUACAUGAGGAUCACCCAUGUGAAAGAAAAAAGUGAAAAAGCAAAGUAGAAGGCGCUGACA [73%, Moding Norbert Elias, 5]”: the “apparent KD of MS2 coat protein” value came out at 192 nM in the series on MS2 coat protein [1] and 34.9 nM in the series on MS2 coat protein [2].

As for “AAGAGUAGAGGAUAUACAUAAAAAGAGUCGAAAGACUCGGGACAUGAGGAUCACCCAUGUAGAAGGCUACUCAA [Hyphema Seclusion Mod 62% 4]”, the “apparent KD of MS2 coat protein” value with MS2 coat protein [1] is 406 nM; with MS2 coat protein [2] it was 98.6 nM.

Regarding “AACAGACAUGAGGAUCACCCAUGUAAGGAUAUCCCAAACGAUAAAACAAGAAUGACAAGGAGAAGGUGCAGCAA [JR_Exc001_Sub006]”, the “apparent KD of MS2 coat protein” value with MS2 coat protein [1] came to 50.8 nM; in the series with MS2 coat protein [2], 62.8 nM.

Turning to “AAGAAGGAAGGAUAUACAUGAGGAUCACCCAUGUAAAAGAAAGAAAGGGAAAAGAAAAGUAGAAGGUCCAAGAA [Aakheperre Setepenre Osorkon]”, the “apparent KD of MS2 coat protein” value was determined as 38.7 nM in the series on MS2 coat protein [1] and 25.4 nM with MS2 coat protein [2].

Turning to “AAAAAGGCAGGAUAUGCAUACCCACGGAAAAAAAGGCUGGGACAUGAGGAUCACCCAUGUAGAAGGGCCAAAAA [Dora Explored 12 - Jieux - Exclusion 2]”, the “apparent KD of MS2 coat protein” value came out at 14.5 nM with MS2 coat protein [1] and 21.5 nM with MS2 coat protein [2].

For “CCAGAUGCAGGAUAUACAUGAGGAUCACCCAUGUGGCACACACCCACCCACAGCACCCGUAGAAGGGCAGCACG [Halfast on Cytosine - Jieux - Exclusion 3]”, the “apparent KD of MS2 coat protein” value amounted to 25.9 nM with MS2 coat protein [1] and 27 nM in the series on MS2 coat protein [2].

Regarding “AACUAGUGAGGAUAUACAAGAAAAAAAAAAAAAAUAAAGGGACAUGAGGAUCACCCAUGUAGAAGGCACUAACA [Diamond 69]”, the results for the “apparent KD of MS2 coat protein” value in the series on MS2 coat protein [1] and with MS2 coat protein [2] were 64.9 nM and 37.7 nM, respectively.

For the sequence “AGUGAGUGAGGAUAUGCUAGAAGAAUAAAAGAAAUAACGUAGCAGAAGGCACAUGAGGAUCACCCAUGUACACA [May 66]”, the figures for the “apparent KD of MS2 coat protein” value in the series with MS2 coat protein [1] and in the series on MS2 coat protein [2] were 22.5 nM and 25.6 nM, respectively.

“AAAAAAGCAGGAUAUACGAACAUGUCAAAAGACGUGAAGGGACAUGAGGAUCACCCAUGUAGAAGGGUUAAAAA [JL Stem Breaker 5]”: the “apparent KD of MS2 coat protein” value in the series on MS2 coat protein [1] was 53.6 nM; in the series on MS2 coat protein [2], 198 nM.

In the case of “AAAAAAAGAGGAUAUACGUACAUGUCGAAAGACGUGAAGGGACAUGAGGAUCACCCAUGUAGAAGGUUUAAAAA [Mat - Exclusion 2 - JL mod - D84]”, the “apparent KD of MS2 coat protein” value in the series with MS2 coat protein [1] came out at 15.8 nM; with MS2 coat protein [2], 33.8 nM.

As for “AAAGAUACAGGAUAUACAUGAGGAUCACCCAUGUGGAAUCAAAAAUGGGAAAAAGAAAGUAGAAGGGUAUAAAA [Ex 3 May 38]”, the results for the “apparent KD of MS2 coat protein” value in the series on MS2 coat protein [1] and in the series on MS2 coat protein [2] were 87.3 nM and 30.6 nM, respectively.

As to “AGCACGUCAGGAUAUACGAAAAAAAAGGGAAACAACAAGGGACAUGAGGAUCACCCAUGUAGAAGGGACUAGCA [Diamond 97]”, the “apparent KD of MS2 coat protein” value in the series on MS2 coat protein [1] was 44.3 nM; in the series with MS2 coat protein [2] it was 49.4 nM.

As for “AAAAAGUGAGGAUAUCCAGAUAAAAAAACGAAAAAAAAUCUGGAGAAGGCACAUGAGGAUCACCCAUGUAUGAC [Ex 4 May 6]”, the “apparent KD of MS2 coat protein” value is 38.2 nM with MS2 coat protein [1] and 32.7 nM in the series on MS2 coat protein [2].
